Measurements published in the RNAGym collection of RNA variant scans (doi:10.1093/nar/gkz1192).

B1: CPEB3 Ribozyme (parent)
chain: UAACAGGGGGCCACAGCAGAAGCGUUCACGUCGCAGCCCCUGUCAGAUUCUGGUGAAUCUGCGAAUUCUGCUGUAUAUCUC

Variants of: B1
Assay: self-cleavage, relative activity (ratio to wild type); higher = more cleavage; in vitro, sequencing
Summary of the method: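 For each CPEB3 ribozyme variant, relative activity is its cleaved/total read fraction divided by the unmutated ribozyme's. Barcoded error-prone PCR libraries were transcribed by T7 RNA polymerase (5 hours, 37°C) and held in DNase I for 15 min before an EDTA stop, with cleavage occurring throughout. Template-switching reverse transcription and Illumina sequencing were used to read the RNAs. A 5-read minimum applied, and results are the mean of three batches.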
C27A A77U showed a self-cleavage of 0.14. Variant U26G A64G has a self-cleavage of 0.25. Work on C27U U80A yielded a self-cleavage of 0.29. Work on C27U U80C yielded a self-cleavage of 0.58. With A28G C40G the self-cleavage was 0.22. For A28G C40U, the self-cleavage was 0.48. In the case of C27U A77U, the self-cleavage is reported as 0.09. A28G A75U gave a self-cleavage of 0.73. A28G A75G gave a self-cleavage of 0.53. C27A C81U showed a self-cleavage of 0.11. Variant A28G C81A has a self-cleavage of 1. With A28G C81U the self-cleavage was 0.75. For A28G C81G, the self-cleavage was 0.42. Variant A28C C38G has a self-cleavage of 0.19. In the case of A28C C38U, the self-cleavage is reported as 0.41. In the case of U26G C59A, the self-cleavage is reported as 0.16. Work on A28C U80A yielded a self-cleavage of 0.53. A28C G52U gave a self-cleavage of 0.64. A28C U43C showed a self-cleavage of 0.4. Variant A28C U43A has a self-cleavage of 0.59. In the case of C27G A47U, the self-cleavage is reported as 0.05. C27G U41C showed a self-cleavage of 0.18. A28C U78A gave a self-cleavage of 0.64. With A28C U78C the self-cleavage was 0.46. Work on A28G A56U yielded a self-cleavage of 0.34. Work on A28G A56G yielded a self-cleavage of 0.43. In the case of A28G A56C, the self-cleavage is reported as 0.31. With C27G U76C the self-cleavage was 0.22. A28C U49C gave a self-cleavage of 0.21. With A28C U49A the self-cleavage was 0.26. For A28C A35G, the self-cleavage was 0.98. With A28C A35C the self-cleavage was 0.4. In the case of A28C A35U, the self-cleavage is reported as 0.27. Variant C27U U48C has a self-cleavage of 0.18. With A28G C34A the self-cleavage was 0.32. In the case of A28G C34U, the self-cleavage is reported as 0.32. For A28G C34G, the self-cleavage was 0.35. For A28G C79U, the self-cleavage was 0.88. C27U A35U gave a self-cleavage of 0.32. For C27U A35G, the self-cleavage was 0.41. U26G A56U gave a self-cleavage of 0.1. For U26G A56G, the self-cleavage was 0.24. Variant A28C U76A has a self-cleavage of 0.61. With A28C U76C the self-cleavage was 0.53. Variant A28C C32A has a self-cleavage of 0.24. For U26C U67G, the self-cleavage was 0.21. U26C U67A gave a self-cleavage of 0.24. U26C U67C gave a self-cleavage of 0.22. Variant C27U C38U has a self-cleavage of 0.32. Variant U26C U80A has a self-cleavage of 0.51. With U26C U80G the self-cleavage was 0.54. For U26C U80C, the self-cleavage was 0.56. For C27U U74A, the self-cleavage was 0.5. With C27U U74C the self-cleavage was 0.36. For U26G U48A, the self-cleavage was 0.37. With U26G U48C the self-cleavage was 0.22. With U26G C44A the self-cleavage was 0.25. With A28C U48A the self-cleavage was 0.37. A28C U48C showed a self-cleavage of 0.46. For C27G U80A, the self-cleavage was 0.22. With U26C U69C the self-cleavage was 0.27. Work on U26C U69A yielded a self-cleavage of 0.26. With U26C U69G the self-cleavage was 0.17. For C27U U60C, the self-cleavage was 0.14. Variant C27U U54A has a self-cleavage of 0.34. In the case of C27U U54C, the self-cleavage is reported as 0.35. U26G A57G gave a self-cleavage of 0.27. Variant A28G G61U has a self-cleavage of 0.5. Work on A28G G61A yielded a self-cleavage of 0.38. For A28G G61C, the self-cleavage was 0.15. Variant A28C A47C has a self-cleavage of 0.18. For A28G A57U, the self-cleavage was 0.24. A28G A57G gave a self-cleavage of 0.51. A28G A57C showed a self-cleavage of 0.16. With A28C G73U the self-cleavage was 0.55. Variant C27U U41C has a self-cleavage of 0.2. In the case of C27U U41G, the self-cleavage is reported as 0.11. Variant C27U U41A has a self-cleavage of 0.2. C27A A35G gave a self-cleavage of 0.52. C27A G46U gave a self-cleavage of 0.18. For U26G A65G, the self-cleavage was 0.35. In the case of U26G A65U, the self-cleavage is reported as 0.15. Variant U26G C79A has a self-cleavage of 0.19. U26G C79U showed a self-cleavage of 0.4. In the case of C27A U78C, the self-cleavage is reported as 0.19. With A28G A35C the self-cleavage was 0.53. In the case of A28G A35G, the self-cleavage is reported as 1.18. Variant A28G A35U has a self-cleavage of 0.27. In the case of U26G G53A, the self-cleavage is reported as 0.24. Variant U26G A47G has a self-cleavage of 0.39. For A28C C62U, the self-cleavage was 0.06. With U26C U76A the self-cleavage was 0.53. Work on U26C U76G yielded a self-cleavage of 0.55. U26C U76C gave a self-cleavage of 0.52. In the case of C27G C50U, the self-cleavage is reported as 0.23. A28G A77C gave a self-cleavage of 0.58. With A28G A77G the self-cleavage was 0.72. A28G A77U showed a self-cleavage of 0.79. With C27A U74C the self-cleavage was 0.19. Variant C27A A28G has a self-cleavage of 0.27. With A28G C37U the self-cleavage was 0.43. Work on A28G C37A yielded a self-cleavage of 0.21. Work on A28G C59A yielded a self-cleavage of 0.2. Variant A28G C59U has a self-cleavage of 0.54. With A28G A47C the self-cleavage was 0.23. With A28G A47U the self-cleavage was 0.25. With A28G A47G the self-cleavage was 0.52. In the case of U26G U72A, the self-cleavage is reported as 0.14. U26G U72C showed a self-cleavage of 0.31. Work on A28C G70A yielded a self-cleavage of 0.27. Variant A28C G70U has a self-cleavage of 0.11. A28C G55U showed a self-cleavage of 0.21. Variant C27A C39A has a self-cleavage of 0.2. In the case of U26G U43A, the self-cleavage is reported as 0.41. Work on U26G U43C yielded a self-cleavage of 1.02. A28C U54G gave a self-cleavage of 0.36. For A28C U54C, the self-cleavage was 0.53. A28C C81U showed a self-cleavage of 0.67. Work on C27U G33U yielded a self-cleavage of 0.34. Variant C27G C29U has a self-cleavage of 0.29. For U26C U66C, the self-cleavage was 0.26. Work on U26C U66G yielded a self-cleavage of 0.21. In the case of U26C U66A, the self-cleavage is reported as 0.23. A28C A65G showed a self-cleavage of 0.24. Variant A28C A65U has a self-cleavage of 0.3. For C27U G30A, the self-cleavage was 0.26. Variant U26G C27U has a self-cleavage of 0.63. With U26G C34G the self-cleavage was 0.07. For A28G G30A, the self-cleavage was 0.2. Work on A28G G30C yielded a self-cleavage of 0.32. U26G A77G showed a self-cleavage of 0.34. Work on C27A U51C yielded a self-cleavage of 0.21. C27A U51A gave a self-cleavage of 0.38. A28C A56G gave a self-cleavage of 0.3. Variant A28C A56U has a self-cleavage of 0.23. With U26C U74A the self-cleavage was 0.73. U26C U74G gave a self-cleavage of 0.78. For U26C U74C, the self-cleavage was 0.79. With C27A U58G the self-cleavage was 0.25. C27G A75G showed a self-cleavage of 0.3. U26G gave a self-cleavage of 0.31. For C27G U74C, the self-cleavage was 0.41. In the case of C27A, the self-cleavage is reported as 0.3. C27G gave a self-cleavage of 0.28. C27U gave a self-cleavage of 0.29. A28C G61C gave a self-cleavage of 0.19. A28C G61A gave a self-cleavage of 0.48. In the case of A28C G61U, the self-cleavage is reported as 0.2. U26G U51A gave a self-cleavage of 0.42. With U26G U51G the self-cleavage was 0.33. In the case of U26G U78A, the self-cleavage is reported as 0.51. For U26G U78C, the self-cleavage was 0.3. With C27U C37U the self-cleavage was 0.2. For C27A C50U, the self-cleavage was 0.17. In the case of U26G U31A, the self-cleavage is reported as 0.3. With U26G U31C the self-cleavage was 0.25. C27U A65G showed a self-cleavage of 0.24. Work on C27U A65U yielded a self-cleavage of 0.14. Work on C27U A65C yielded a self-cleavage of 0.1. In the case of C27U U31C, the self-cleavage is reported as 0.46. In the case of U26G U49A, the self-cleavage is reported as 0.28. Variant U26G U49G has a self-cleavage of 0.05. Work on C27U U76C yielded a self-cleavage of 0.19. With C27U U76A the self-cleavage was 0.28. Work on A28C U67C yielded a self-cleavage of 0.22. A28C U67A showed a self-cleavage of 0.49. With U26G A45G the self-cleavage was 0.17.
